Molecular target: synthetic peptide of stem helix (1141-1161) of SARS-CoV-2 WT S with biotin at C terminus (SARS-CoV-2, UniProt P0DTC2 1141-1161, biotin at C terminus)
Experiment: BLI

B1: S2P6 recombinant mAb with human IgG1 constant region (antibody, V domains shown)
VH: EVQLVQSGAEVKKPGASVKVSCKASGYTFTSQYMHWVRQAPGQGLEWIGIINPSGVHTSYAQKFQGRVTLTRDTSTSTLYMELSSLRSEDTAVYYCARGSPKGAFDYWGQGTLVTVSS
VL: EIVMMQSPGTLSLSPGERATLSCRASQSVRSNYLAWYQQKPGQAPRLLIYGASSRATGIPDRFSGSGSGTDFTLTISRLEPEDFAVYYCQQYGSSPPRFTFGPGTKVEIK
B1 was tested, and the koff was < 1e-06 s⁻¹.
